Experimental data as given in patent US20260055205A1 (published 2026).
Numbering of substitutions follows the chain as printed.

T1: cynomolgus monkey CD3 epsilon (cynomolgus monkey, UniProt Q95LI5 22-117, limits assumed)
T1 construct: also called cyCD3e; cyno CD3
T1 sequence (looked up): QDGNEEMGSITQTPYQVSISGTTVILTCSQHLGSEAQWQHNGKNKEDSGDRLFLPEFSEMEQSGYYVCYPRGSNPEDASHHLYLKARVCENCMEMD

B1: uTCE of AC3353 (bispecific antibody)
chain: QVQLVESGGGVVQPGRSLRLSCAASGRTFGIYVMGWVRQAPGKEREFVAAISWSGSNRLVSDSVKGRFTISRDNSKNTLYLQMNSLRAEDTAVYYCAASNRLYGRTWYDFNESDYWGQGTQVTVSSGGGGSELVVTQEPSLTVSPGGTVTLTCRSSNGAVTSSNYANWVQQKPGQAPRGLIGGTNKRAPGTPARFSGSLLGGKAALTLSGVQPEDEAVYYCALWYPNLWVFGGGTKLTVLGATPPETGAETESPGETTGGSAESEPPGEGEVQLLESGGGIVQPGGSLKLSCAASGFTFNTYAMNWVRQAPGKGLEWVARIRSKYNNYATYYADSVKDRFTISRDDSKNTVYLQMNNLKTEDTAVYYCVRHENFGNSYVSWFAHWGQGTLVTVSS
notes: also called PSMA.5 (5 mer)
B2: uTCE from AC3928 (bispecific antibody)
chain: QVQLVESGGGVVQPGRSLRLSCAASGRTFGIYVWGWFRQAPGKEREFVGAMSWSGSNRKVSDSVKGRFTISRDNSKNTLYLQMNSLRAEDTAVYYCAASNKEYGRTWYDFNESDYWGQGTQVTVSSGGGGSGGGSELVVTQEPSLTVSPGGTVTLTCRSSNGAVTSSNYANWVQQKPGQAPRGLIGGTNKRAPGTPARFSGSLLGGKAALTLSGVQPEDEAVYYCALWYPNLWVFGGGTKLTVLSESATPESGPGTSPGATPESGPGTSESATPEVQLLESGGGIVQPGGSLKLSCAASGFTFNTYAMNWVRQAPGKGLEWVARIRSKYNNYATYYADSVKDRFTISRDDSKNTVYLQMNNLKTEDTAVYYCVRHENFGNSYVSWFAHWGQGTLVTVSS
notes: also called AMX500-P6 uTCE; PSMA.350-CD3.23
B3: uTCE from AC3445 (bispecific antibody)
chain: B2 chain with W34M, F37V, G49A, M51I, K101R, E102L
notes: also called PSMA.119-CD3.23
B4: uTCE from AC3934 (bispecific antibody)
chain: QVQLVESGGGVVQPGRSLRLSCAASGRTFGIYVWGWVRQAPGKEREFVGAISWSGSNRKVSDSVKGRFTISRDNSKNTLYLQMNSLRAEDTAVYYCAASNKLYGRTWYDFNESDYWGQGTQVTVSSGGGGSGGGSELVVTQEPSLTVSPGGTVTLTCRSSNGAVTSSNYANWVQQKPGQAPRGLIGGTNKRAPGTPARFSGSLLGGKAALTLSGVQPEDEAVYYCALWYPNLWVFGGGTKLTVLSESATPESGPGTSPGATPESGPGTSESATPEVQLVESGGGIVQPGGSLRLSCAASGFTFSTYAMNWVRQAPGKGLEWVGRIRTKRNNYATYYADSVKGRFTISRDDSKNTVYLQMNSLKTEDTAVYYCVRHENFGNSYVSWFAHWGQGTLVTVSS
notes: also called AMX500-P7 uTCE; PSMA.262-CD3.228
B5: uTCE of AC2591 (PSMA-VHH; CB01H01R3, CD3.23) (bispecific antibody)
chain: LTGPATSGSETPGTEVQLVESGGGSVQAGGSLSLSCVASGRTFGIYVMGWFRQAPGKEREFVAAISWSGSNRLVSDSVKGRFTISRENAKNTIYLQMNGLKPEDTANYFCAASNRLYGRTWYDFNESDYWGQGTQVTVSSGGGGSGGGSELVVTQEPSLTVSPGGTVTLTCRSSNGAVTSSNYANWVQQKPGQAPRGLIGGTNKRAPGTPARFSGSLLGGKAALTLSGVQPEDEAVYYCALWYPNLWVFGGGTKLTVLGATPPETGAETESPGETTGGSAESEPPGEGEVQLLESGGGIVQPGGSLKLSCAASGFTFNTYAMNWVRQAPGKGLEWVARIRSKYNNYATYYADSVKDRFTISRDDSKNTVYLQMNNLKTEDTAVYYCVRHENFGNSYVSWFAHWGQGTLVTVSSGTAEAASASGEAGRSANHTPAG
notes: also called PSMA.2

Tests used:
human PSMA-Fc [1] = target: T2, human PSMA-Fc (human, UniProt Q04609 44-750); assay: Octet
T2 construct: also called Human PSMA-Fc fusion
T2 sequence (Q04609 44-750 limits assumed): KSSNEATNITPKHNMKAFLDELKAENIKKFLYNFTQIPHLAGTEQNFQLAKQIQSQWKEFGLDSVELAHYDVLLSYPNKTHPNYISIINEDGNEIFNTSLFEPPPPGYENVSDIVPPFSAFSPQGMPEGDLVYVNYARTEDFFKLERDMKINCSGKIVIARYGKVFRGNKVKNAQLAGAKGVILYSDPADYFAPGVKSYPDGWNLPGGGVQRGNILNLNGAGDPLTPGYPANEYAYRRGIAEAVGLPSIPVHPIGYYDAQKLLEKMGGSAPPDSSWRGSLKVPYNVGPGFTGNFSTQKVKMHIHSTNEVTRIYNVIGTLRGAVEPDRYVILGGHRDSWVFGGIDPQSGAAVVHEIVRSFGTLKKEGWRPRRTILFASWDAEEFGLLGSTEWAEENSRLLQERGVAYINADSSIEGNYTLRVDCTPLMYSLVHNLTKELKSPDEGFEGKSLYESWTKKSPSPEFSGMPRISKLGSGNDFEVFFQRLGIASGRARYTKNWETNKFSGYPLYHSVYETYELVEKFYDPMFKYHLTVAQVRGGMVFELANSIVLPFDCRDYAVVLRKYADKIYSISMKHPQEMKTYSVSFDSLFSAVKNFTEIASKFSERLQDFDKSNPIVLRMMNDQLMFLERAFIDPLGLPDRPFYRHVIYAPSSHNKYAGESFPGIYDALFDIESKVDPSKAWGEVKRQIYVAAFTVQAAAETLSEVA

human PSMA-Fc [2] = target: T2, human PSMA-Fc; assay: Octet; remark: listed apart in the source
cynomolgus monkey PSMA [3] = target: T3, cynomolgus monkey PSMA (cynomolgus monkey, UniProt A0A2K5VNZ0 44-750); assay: Octet
T3 construct: also called cyPSMA; cyno PSMA

human PSMA [4] = target: T4, human PSMA (human, UniProt Q04609 44-750, limits assumed); assay: Octet
T4 construct: also called huPSMA; hPSMA
T4 sequence (Q04609 44-750 limits assumed): as above

human CD3 epsilon [5] = target: T5, human CD3 epsilon (human, UniProt P07766 23-126, limits assumed); assay: Octet
T5 construct: also called huCD3e
T5 sequence (P07766 23-126 limits assumed): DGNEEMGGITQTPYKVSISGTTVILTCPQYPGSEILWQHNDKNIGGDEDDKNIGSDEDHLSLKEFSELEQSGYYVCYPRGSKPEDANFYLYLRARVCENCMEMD

[6] = target: T1, cynomolgus monkey CD3 epsilon; assay: Octet
cynomolgus monkey PSMA [7] = target: T3, cynomolgus monkey PSMA; assay: Biacore
human PSMA [8] = target: T4, human PSMA; assay: Biacore
human CD3 epsilon [9] = target: T5, human CD3 epsilon; assay: Biacore
[10] = target: T1, cynomolgus monkey CD3 epsilon; assay: Biacore
human PSMA [11] = target: T4, human PSMA; assay: binding kinetics, uTCE
human PSMA-Fc [12] = target: T2, human PSMA-Fc; assay: Octet, PSMA-Fc
Method: Binding affinity of select PSMA PTE variants was tested by Octet.

| Binder | Kd (human PSMA-Fc [1]) | Kd (human PSMA-Fc [2]) | koff (human PSMA-Fc [2]) | kon (human PSMA-Fc [2]) | Kd (cynomolgus monkey PSMA [3]) | Kd (human PSMA [4]) | Kd (human CD3 epsilon [5]) | Kd [6] | Kd (cynomolgus monkey PSMA [7]) | Kd (human PSMA [8]) | Kd (human CD3 epsilon [9]) | Kd [10] | Kd (human PSMA [11]) | koff (human PSMA [11]) | kon (human PSMA [11]) | Kd (human PSMA-Fc [12]) | koff (human PSMA-Fc [12]) | kon (human PSMA-Fc [12]) |
| --- | --- | --- | --- | --- | --- | --- | --- | --- | --- | --- | --- | --- | --- | --- | --- | --- | --- | --- |
| B1 | 2.1 nM | 2.1 nM | 0.00022 s⁻¹ | 110000 M⁻¹ s⁻¹ |  |  |  |  |  |  |  |  |  |  |  |  |  |  |
| B2 |  |  |  |  | 198 nM | 13.2 nM | 43 nM | 44.9 nM | 354 nM | 19 nM | 27.3 nM | 26.6 nM |  |  |  |  |  |  |
| B3 |  |  |  |  | 47.5 nM | 6.2 nM | 34.8 nM | 40 nM |  |  |  |  |  |  |  |  |  |  |
| B4 |  |  |  |  | 13.1 nM | 1.6 nM | 26.6 nM | 33.7 nM | 13 nM | 0.5 nM | 9.83 nM | 10.4 nM |  |  |  |  |  |  |
| B5 | 1 nM | 1 nM | 0.00012 s⁻¹ | 120000 M⁻¹ s⁻¹ |  |  |  |  |  |  |  |  | 0.79 nM | 8.7e-05 s⁻¹ | 110000 M⁻¹ s⁻¹ | 1 nM | 0.000122 s⁻¹ | 125000 M⁻¹ s⁻¹ |
